Assay results from paper PMC3294029 (2013).
Numbering of substitutions follows the chain as printed. One block for each binder: values may come before it.

Assays:
Assay in all cases: fluorescence anisotropy
N-CoR RID2 peptide [1] = target: T1, N-CoR RID2 peptide (Homo sapiens)
T1 chain: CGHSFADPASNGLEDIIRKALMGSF

ACTR NR box 3 peptide [2] = target: T2, ACTR NR box 3 peptide (Homo sapiens, 521 nM ATRA, Rhodamine Red-labelled peptide)
T2 chain: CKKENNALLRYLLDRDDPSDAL

N-CoR RID2 peptide [3] = target: T3, N-CoR RID2 peptide (Homo sapiens, Rhodamine Red-labelled peptide)
T3 chain: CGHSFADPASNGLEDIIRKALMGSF

N-CoR RID2 peptide [4] = target: T4, N-CoR RID2 peptide (Homo sapiens, 209 nM ATRA, Rhodamine Red-labelled peptide)
T4 chain: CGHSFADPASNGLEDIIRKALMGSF

ACTR NR box 3 peptide [5] = target: T5, ACTR NR box 3 peptide (Homo sapiens, Rhodamine Red-labelled peptide)
T5 chain: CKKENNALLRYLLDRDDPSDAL

- Kd (N-CoR RID2 peptide [1]): 12.2 µM
B1: RARα LBD (protein)
chain: ESYTLTPEVGELIEKVRKAHQETFPALCQLGKYTTNNSSEQRVSLDIDLWDKFSELSTKCIIKTVEFAKQLPGFTTLTIADQITLLKAACLDILILRICTRYTPEQDTMTFSDGLTLNRTQMHNAGFGPLTDLVFAFANQLLPLEMDDAETGLLSAICLICGDRQDLEQPDRVDMLQEPLLEALKVYVRKRRPSRPHMFPKMLMKITDLRSISAKGAERVITPKMEIPGSMPPLIQEMLENSEGLD

- Kd (N-CoR RID2 peptide [1]): 10.9 µM
B2: RARα LBD (protein)
chain: B1 chain with P223L, M238T

- Kd (N-CoR RID2 peptide [1]): 18.6 µM
B3: RARα LBD (protein)
chain: B1 chain with M122L, P223L

- Kd (ACTR NR box 3 peptide [2]): 55 µM
- Kd (N-CoR RID2 peptide [3]): 18.9 µM
- Kd (N-CoR RID2 peptide [4]): 74.2 µM
- Kd (ACTR NR box 3 peptide [5]): 155 µM
B4: RARα LBD (protein)
chain: B1 chain with P223L
